This experiment deals with T1, insulin receptor (IR) of mouse primary hepatocytes (mouse, UniProt P15208 28-748; P15208 753-1372).
T1 construct: whole, on cells; Endogenous receptor on intact primary hepatocytes from wild type or PKCε-/- mice; in cell lysates for the co-precipitation
Description: co-precipitation from hepatocytes of wild type mice; data not shown.

T1 sequence (P15208 28-748 limits assumed, chain 1 of 2): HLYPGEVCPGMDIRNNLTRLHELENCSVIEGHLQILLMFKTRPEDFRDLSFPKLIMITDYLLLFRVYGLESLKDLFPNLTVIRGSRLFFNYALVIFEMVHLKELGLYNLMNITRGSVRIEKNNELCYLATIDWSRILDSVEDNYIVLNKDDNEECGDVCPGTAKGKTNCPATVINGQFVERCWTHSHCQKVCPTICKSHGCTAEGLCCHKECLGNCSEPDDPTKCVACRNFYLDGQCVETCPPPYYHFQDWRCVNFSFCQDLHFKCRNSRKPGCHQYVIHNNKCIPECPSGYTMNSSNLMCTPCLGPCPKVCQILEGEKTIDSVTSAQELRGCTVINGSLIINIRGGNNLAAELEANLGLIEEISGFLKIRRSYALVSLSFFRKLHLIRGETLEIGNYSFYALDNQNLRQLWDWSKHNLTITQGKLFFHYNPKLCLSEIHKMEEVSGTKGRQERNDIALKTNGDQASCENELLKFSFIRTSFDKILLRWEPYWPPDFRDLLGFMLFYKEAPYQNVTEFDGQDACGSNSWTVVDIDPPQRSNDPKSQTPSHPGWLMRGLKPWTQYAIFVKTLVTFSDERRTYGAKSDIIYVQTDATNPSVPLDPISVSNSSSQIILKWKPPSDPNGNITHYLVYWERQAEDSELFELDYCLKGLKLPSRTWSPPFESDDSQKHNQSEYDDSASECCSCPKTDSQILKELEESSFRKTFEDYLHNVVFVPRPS
T1 sequence (P15208 753-1372 limits assumed, chain 2 of 2): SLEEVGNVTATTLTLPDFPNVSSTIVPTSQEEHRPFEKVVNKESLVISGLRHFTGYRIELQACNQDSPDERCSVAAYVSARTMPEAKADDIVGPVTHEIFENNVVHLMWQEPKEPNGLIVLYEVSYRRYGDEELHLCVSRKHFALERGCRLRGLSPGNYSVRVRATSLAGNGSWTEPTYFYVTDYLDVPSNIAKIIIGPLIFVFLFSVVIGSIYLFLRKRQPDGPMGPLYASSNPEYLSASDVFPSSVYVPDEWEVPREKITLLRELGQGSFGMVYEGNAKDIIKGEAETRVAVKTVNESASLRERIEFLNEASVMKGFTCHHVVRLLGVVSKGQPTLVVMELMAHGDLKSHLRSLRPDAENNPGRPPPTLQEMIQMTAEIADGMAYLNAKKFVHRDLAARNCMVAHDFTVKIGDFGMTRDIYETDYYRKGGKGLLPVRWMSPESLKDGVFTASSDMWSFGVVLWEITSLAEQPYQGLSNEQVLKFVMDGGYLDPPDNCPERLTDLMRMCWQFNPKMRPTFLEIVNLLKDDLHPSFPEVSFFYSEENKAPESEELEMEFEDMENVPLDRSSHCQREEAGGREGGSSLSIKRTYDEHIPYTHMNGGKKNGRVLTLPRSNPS

B1: protein kinase C epsilon (PKCε), murine (enzyme)
chain: MVVFNGLLKIKICEAVSLKPTAWSLRHAVGPRPQTFLLDPYIALNVDDSRIGQTATKQKTNSPAWHDEFVTDVCNGRKIELAVFHDAPIGYDDFVANCTIQFEELLQNGSRHFEDWIDLEPEGKVYVIIDLSGSSGEAPKDNEERVFRERMRPRKRQGAVRRRVHQVNGHKFMATYLRQPTYCSHCRDFIWGVIGKQGYQCQVCTCVVHKRCHELIITKCAGLKKQETPDEVGSQRFSVNMPHKFGIHNYKVPTFCDHCGSLLWGLLRQGLQCKVCKMNVHRRCETNVAPNCGVDARGIAKVLADLGVTPDKITNSGQRRKKLAAGAESPQPASGNSPSEDDRSKSAPTSPCDQELKELENNIRKALSFDNRGEEHRASSATDGQLASPGENGEVRPGQAKRLGLDEFNFIKVLGKGSFGKVMLAELKGKDEVYAVKVLKKDVILQDDDVDCTMTEKRILALARKHPYLTQLYCCFQTKDRLFFVMEYVNGGDLMFQIQRSRKFDEPRSRFYAAEVTSALMFLHQHGVIYRDLKLDNILLDAEGHCKLADFGMCKEGIMNGVTTTTFCGTPDYIAPEILQELEYGPSVDWWALGVLMYEMMAGQPPFEADNEDDLFESILHDDVLYPVWLSKEAVSILKAFMTKNPHKRLGCVAAQNGEDAIKQHPFFKEIDWVLLEQKKIKPPFKPRIKTKRDVNNFDQDFTREEPILTLVDEAIIKQINQEEFKGFSYFGEDLMP
notes: Endogenous PKCε in hepatocytes of wild type mice
For the molecule B1, the binding result is listed as “no binding”.
